Earlier results, collected in PMC6018615.

Molecular target: TNPO1 (Homo sapiens) (UniProt Q92973)
UniProt Q92973, sequence (Q92973 whole entry): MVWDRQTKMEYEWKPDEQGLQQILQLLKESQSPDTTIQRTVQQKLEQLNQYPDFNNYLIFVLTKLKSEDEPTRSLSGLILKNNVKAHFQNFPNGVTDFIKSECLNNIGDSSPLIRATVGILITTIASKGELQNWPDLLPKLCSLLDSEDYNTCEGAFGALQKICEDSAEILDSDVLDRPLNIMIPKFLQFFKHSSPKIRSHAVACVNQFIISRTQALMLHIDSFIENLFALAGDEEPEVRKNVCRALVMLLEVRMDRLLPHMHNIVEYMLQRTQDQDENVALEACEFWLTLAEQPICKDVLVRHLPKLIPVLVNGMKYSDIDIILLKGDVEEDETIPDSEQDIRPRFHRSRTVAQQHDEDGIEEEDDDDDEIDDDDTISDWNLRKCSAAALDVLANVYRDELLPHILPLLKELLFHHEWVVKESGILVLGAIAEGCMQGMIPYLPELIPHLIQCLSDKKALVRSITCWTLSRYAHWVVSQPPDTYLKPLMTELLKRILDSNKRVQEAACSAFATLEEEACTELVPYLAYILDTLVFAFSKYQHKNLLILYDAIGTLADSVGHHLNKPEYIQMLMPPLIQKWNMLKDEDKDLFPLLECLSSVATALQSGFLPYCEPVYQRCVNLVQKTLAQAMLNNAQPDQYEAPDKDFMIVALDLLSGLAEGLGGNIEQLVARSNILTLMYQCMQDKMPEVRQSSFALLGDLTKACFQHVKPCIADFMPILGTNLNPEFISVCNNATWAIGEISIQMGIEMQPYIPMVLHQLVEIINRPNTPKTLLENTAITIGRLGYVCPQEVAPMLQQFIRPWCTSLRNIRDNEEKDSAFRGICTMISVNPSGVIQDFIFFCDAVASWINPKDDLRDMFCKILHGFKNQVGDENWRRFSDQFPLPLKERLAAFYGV

## FUS (from UniProt P35637)
  Kd: 9.5 nM
